Square brackets hold non-standard residues; d marks the D form. Ends that are not written are not given here. pGlu = O=C1CC[C@@H](C(=O)O)N1
Key:
[1] = test system: aged rats and AD model rats
Protocol: The arginine vasopressin (AVP) concentration and AQP4 concentration in the brain are assayed with aged rats and AD model rats. Between placebo groups and intranasal AVP spray groups, the expression amount of AQP4 is assessed and simultaneously amyloid 3 (AB) proteins (and/or tau proteins) are assayed. The assays of AQP4 and AB are carried out with an immunofluorescent-antibody assay. The measured concentration of each of AB (and/or tau) is compared (throughout all the brain and each site) at each time point, i.e., prior to administration, at one week after administration, at one month after administration, and at three months after administration.
In this assay, the comparisons are carried out between the above groups and intravascularly AVP received groups.

V1aR receptor (V1aR) = V1aR receptor (V1aR) (Homo sapiens, UniProt P37288); assay: V1aR agonist activity of AVP fragments compared with AVP; settings: no method or data given
V1aR receptor (V1aR), sequence (P37288 whole entry, species assumed, the tested form may be a part): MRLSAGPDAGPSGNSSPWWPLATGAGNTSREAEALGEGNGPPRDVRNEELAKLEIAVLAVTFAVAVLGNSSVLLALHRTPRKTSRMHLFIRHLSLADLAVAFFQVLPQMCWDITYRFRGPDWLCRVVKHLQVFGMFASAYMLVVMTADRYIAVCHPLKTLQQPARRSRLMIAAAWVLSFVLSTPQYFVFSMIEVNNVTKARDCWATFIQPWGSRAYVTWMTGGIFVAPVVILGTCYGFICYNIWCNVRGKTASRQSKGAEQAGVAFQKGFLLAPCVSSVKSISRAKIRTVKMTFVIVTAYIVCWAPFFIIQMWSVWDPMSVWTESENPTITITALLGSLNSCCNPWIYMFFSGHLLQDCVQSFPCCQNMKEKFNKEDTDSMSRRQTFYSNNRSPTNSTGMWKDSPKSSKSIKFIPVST

Substance	V1aR agonist activity relative to original AVP (V1aR receptor (V1aR))	other results
8-arginine-vasopressin [AVP]		correlation between the concentration of AVP in the brain and the expression amount of AQP4 ([1]; aged rats and AD model rats, intranasal AVP spray vs placebo, immunofluorescent-antibody assay): There is a correlation; correlation of brain AVP concentration and AQP4 expression with the amount of AB reduction ([1]; aged rats and AD model rats, prior to, one week, one month and three months after administration): correlate with the amount of AB reduction; effectiveness of intranasal AVP administration ([1]; compared with placebo groups and intravascularly AVP received groups): effective
AVP (4-8): AVP fragment (QNCPR; Arg-vasopressin; UniProt P01185 23-27, looked up, fragment)	several-fold superior to original AVP	
AVP (4-9): AVP fragment (QNCPRG; ends and bridges not checked; UniProt P01185 23-28, looked up, fragment)	several-fold superior to original AVP	

Continued, in another order:

V1aR agonist activity relative to original AVP (V1aR receptor (V1aR))	Substance	other results
several-fold superior to original AVP	AVP (5-8): AVP fragment (NCPR; Arg-vasopressin; UniProt P01185 24-27, looked up, fragment)	
several-fold superior to original AVP	AVP (5-9): AVP fragment (NCPRG; ends and bridges not checked; UniProt P01185 24-28, looked up, fragment)	
several-fold superior to original AVP	pGlu-Asn-Ser-Pro-Arg-Gly-NH2 acetate ([pGlu]NSPRG-NH2; also: acetate salt) [NC1900, AVP fragment]	

— patent publication US20240316143A1, “THERAPEUTIC AGENTS AND/OR PHARMACEUTICAL COMPOSITIONS FOR NEUROCOGNITIVE DISORDERS” (priority 2023, published 2024)
